Our source for the PRNT IC50 values is US20240327502A1.

To fix the notation:
B1: M4A02 (antibody, V domains shown)
VH: EVQLVESGGGLVEPGGSLRLSCAASGFMFTSYAMHWVRQAPGRGLEWVSSITGGGNFVEYAVSVQGRFTVSRDNNQNSLYLQMNSLRVEDTAMYYCAREDYNSGANLHWFDPWGQGTLVTVSS
VL: QSVLTQPPSVSGAPGQRVTISCTGSSSNIGAFFDVHWYSHLPGTAPKLLIYGDRNRPSGVPERFSGSKSGASASLTITGLRAEDEADYYCQSYDRGLSAWVFGGGTRVTVL
B2: M3A06 (antibody, V domains shown)
VH: EVQLVESGGGLVKPGGSLRLSCAASGFTLTSYSMNWVRQAPGKGLEWVSSISSSSSYIHYADSVKGRFTISRDNAKNSVYLQMNSLRAEDTAAYYCARVARELDPFDMWGQGTVVTVAS
VL: QSVLTQPPSVSGAPGQRVTISCTGSSSNIGAGYDVHWYQQLPGTAPKLLVYANNNRPSGVPDRFSGSKSGTSASLAITGLQADDEADYYCQSYDRSLSGSVFGGGTKLTVL
B3: M3B02 (antibody, V domains shown)
VH: EVQLVESGGGLVKPGGSLRISCVASEFTLSGYAMNWVRQVPGKGLEWVSSISSSSSYINYADFVKGRFTISRDNAKNSVFLQLNSLRPEDTALYYCVRERPTAILPYLDLWGRGTLVTVSS
VL: B2 VL with H36Q, L41S, V50I, Y51H, A52G, D83E, S100W
B4: M4A05 (antibody, V domains shown)
VH: EVQLVESGGGLVKPGGSLRLSCAAFGFSLSGYGMNWVRQAPGKGLQWVSSITASSSYITYRDSLRGRFTISRDNAQNSLYLDMTALRVEDTAVYYCATNGKLPPYFDHWGQGVLVVVSS
VL: QSVLTQPPSVSGAPGQRVTISCTGSGSNIGAGYDVHWYQQLPGTAPKLLIYDNNHRASGVPDRVSASWSGTSASLAITGLQAEDEADYYCQSYDRNLEGVVFGGGTKLTVL
B5: M4A11 (antibody, V domains shown)
VH: QVQLVQSGSEVKRPGASVRVSCTASGYTFSNYGVSWMRQAPGHGLEWMGWISTHNQNVRYSQNFQGRVTVTTDTSTSTAYMDLRGLKPDDTAVYFCARMIPVGTTYTPYWTGWTPGGMDIWGQGTTVIVSS
VL: QSVLTQPPSASGTPGQRVIMSCSGTTSNIGRNFVYWYQQLPKEAPTLLIYGNDQRPAGVPDRFSGSTSGTSASLAISGLRSGDEADYYCATWDDSVNGPVFGGGTKLTVL
B6: M3E01 (antibody, V domains shown)
VH: EVQLVESGGGLIQPGGSLRLSCTASGFTVSSKYMSWVRQAPGKGLEWVSLIYDGGSTYYADSVKGRFLISRDNAKNTLYLQMHSLRAEDTAVYYCARDRGTYSGYDWYSGMDVWGQGTTVTVSS
VL: DIQLTQSPSFLSASVGDRITITCRASQGISSYLAWYQQKPGKAPKLLIYAASTLQSGVPSRFSGSGSGTEFNVTISSLQPEDFATYYCQQLKSYPGTFGQGTKVEIE

Residue numbers refer to the chain shown, from its start.

Substrate in the first assay: F protein of RSV B/Washington virus (respiratory syncytial virus B, Washington strain)
As to the kind of experiment: cell-based or functional assay.
B1: the PRNT IC50 is 0.0364 µg/mL.
The same measure, in the same setting: in the case of B2 it was 0.0274 µg/mL.
Still for that read-out and setting: in the case of B3 it was 0.0153 µg/mL; in that of B4, 0.0295 µg/mL.

Substrate in a further assay: F protein of hMPV A virus (human metapneumovirus subtype A)
The assay can be described thus: cell-based or functional assay.
Regarding B1, the PRNT IC50 was 0.186 µg/mL.
B5: the PRNT IC50 is over 10 µg/mL.
Still for that read-out and setting: for B2 the value was 0.31 µg/mL.
Turning to B3, the PRNT IC50 is 1.06 µg/mL.
The same measure, in the same setting: for B6 the value was over 10 µg/mL.
The same measure, in the same setting: in the case of B4 it was 0.0569 µg/mL.

Substrate in the next assay: F protein of hMPV B virus (human metapneumovirus subtype B)
The assay can be described thus: cell-based or functional assay.
Turning to B1, the PRNT IC50 was determined as 0.0927 µg/mL.
Same read-out and setting: in the case of B5 it was over 10 µg/mL; in that of B2, 0.416 µg/mL.
Still for that read-out and setting: in the case of B3 it was 1.54 µg/mL; in that of B6, over 10 µg/mL.
As for B4, the PRNT IC50 is 0.0425 µg/mL.
